{"source": "ChEMBL document CHEMBL1123068", "about": "“2-Fluoroformycin and 2-aminoformycin. Synthesis and biological activity” (J Med Chem, 1985)", "key": {"[1]": {"substrate": "Nc1nc(N)c2ncn([C@@H]3O[C@H](CO)[C@@H](O)[C@H]3O)c2n1", "assay": "(§1) Kinetic parameter was determined against adenosine deaminase expressed as Vmax"}, "[2]": {"substrate": "Nc1ncnc2c1ncn2[C@@H]1O[C@H](CO)[C@@H](O)[C@H]1O", "assay": "as §1"}, "[3]": {"substrate": "Nc1nc(F)nc2c1ncn2[C@@H]1O[C@H](CO)[C@@H](O)[C@@H]1O", "assay": "as §1"}, "[4]": {"substrate": "Nc1nc(F)nc2c1ncn2[C@@H]1O[C@H](CO)[C@@H](O)[C@@H]1O", "assay": "Kinetic parameter was determined against adenosine deaminase expressed as Km"}}, "data": [{"protein": "Adenosine deaminase (Bos taurus), P56658 (protein) MAQTPAFNKPKVELHVHLDGAIKPETILYYGRKRGIALPADTPEELQNIIGMDKPLSLPEFLAKFDYYMPAIAGCREAVKRIAYEFVEMKAKDGVVYVEVRYSPHLLANSKVEPIPWNQAEGDLTPDEVVSLVNQGLQEGERDFGVKVRSILCCMRHQPSWSSEVVELCKKYREQTVVAIDLAGDETIEGSSLFPGHVKAYAEAVKSGVHRTVHAGEVGSANVVKEAVDTLKTERLGHGYHTLEDATLYNRLRQENMHFEVCPWSSYLTGAWKPDTEHPVVRFKNDQVNYSLNTDDPLIFKSTLDTDYQMTKNEMGFTEEEFKRLNINAAKSSFLPEDEKKELLDLLYKAYGMPSPASAEQCL", "values": [{"measurement": "Vmax (µmol min-1 mg-1)", "setting": "[1]", "result": 119}, {"measurement": "Vmax (µmol min-1 mg-1)", "setting": "[2]", "result": 435}, {"measurement": "Vmax", "setting": "[3]", "result": 0.78, "unit": "M/min/mg"}, {"measurement": "Km", "setting": "[4]", "result": 81, "unit": "µM"}]}]}
